Assay results reported in patent US20180016327A1 (Chugai, published 2018).
Positions count from the first letter of the chain named.

B1: CFP0017 17L 94T (antibody, V domains shown)
VH: QVQLVQSGAEVKKPGSSVKVSCKASGGTFSSYAISWVRQAPGQGLEWMGGIIPIFGTANYAQKFQGRVTITADESTSTAYMELSSLRSEDTAVYYCARGGWWGGALDYWGQGTLVTVSS
VL: DIQMTQSPSSLSASVGDRVTITCRASQSIEDDLAWYQQKPGKAPKLLIYHASSLQSGVPSRFSGSGSGTDFTLTISSLQPEDFATYYCQQSDSTPLTFGQGTKVEIK
B2: CFP0017 17L 31A (antibody, V domains shown)
VH: B1 VH
VL: B1 VL with D31A, T94Y
B3: CFP0017 17L 31H (antibody, V domains shown)
VH: B1 VH
VL: B1 VL with D31H, T94Y
B4: CFP0017 17L 53T (antibody, V domains shown)
VH: B1 VH
VL: B1 VL with S53T, T94Y
B5: CFP0017 17L 93N (antibody, V domains shown)
VH: B1 VH
VL: B1 VL with S93N, T94Y
B6: CFP0017 17L 53H (antibody, V domains shown)
VH: B1 VH
VL: B1 VL with S53H, T94Y
B7: CFP0019 (antibody, V domains shown)
VH: QVQLQESGPGLVKPSETLSLTCAVSGYSISSGYYWGWIRQPPGKGLEWIGSIYHSGSTYYNPSLKSRVTISVDTSKNQFSLKLSSVTAADTAVYYCARYYVWLGGPTYMDYWGQGTLVTVSS
VL: B1 VL with S53T, S93G, T94Y
notes: IgG format
B8: CFP0017 17L 93G (antibody, V domains shown)
VH: B1 VH
VL: B1 VL with S93G, T94Y
B9: CFP0017 17L 34N (antibody, V domains shown)
VH: B1 VH
VL: B1 VL with A34N, T94Y
B10: CFP0017 17L 96Y (antibody, V domains shown)
VH: B1 VH
VL: B1 VL with T94Y, L96Y
B11: CFP0017 17L 93R (antibody, V domains shown)
VH: B1 VH
VL: B1 VL with S93R, T94Y
B12: CFP0017 17L 93D (antibody, V domains shown)
VH: B1 VH
VL: B1 VL with S93D, T94Y
B13: CFP0017 17L 53N (antibody, V domains shown)
VH: B1 VH
VL: B1 VL with S53N, T94Y
B14: CFP0017 17L 94S (antibody, V domains shown)
VH: B1 VH
VL: B1 VL with T94S
B15: CFP0021 21L 96Y (antibody, V domains shown)
VH: QVQLVESGGGLVQPGGSLRLSCAASGFTFSDHYMDWVRQAPGKGLEWVGRTRNKANSYTTEYAASVKGRFTISRDDSKNSLYLQMNSLKTEDTAVYYCARTGMMYWGIFDVWGQGTLVTVSS
VL: B1 VL with S53T, S91H, T94Y, L96Y
B16: CFP0021 21L 92S (antibody, V domains shown)
VH: B15 VH
VL: B1 VL with S53T, S91H, D92S, T94Y
B17: CFP0021 21L 50S (antibody, V domains shown)
VH: B15 VH
VL: B1 VL with H50S, S53T, S91H, T94Y
B18: CFP0021 21L 93G (antibody, V domains shown)
VH: B15 VH
VL: B1 VL with S53T, S91H, S93G, T94Y
B19: CFP0021 21L 50Y (antibody, V domains shown)
VH: B15 VH
VL: B1 VL with H50Y, S53T, S91H, T94Y
B20: CFP0021 21L 53N (antibody, V domains shown)
VH: B15 VH
VL: B1 VL with S53N, S91H, T94Y
B21: CFP0021 21L 96H (antibody, V domains shown)
VH: B15 VH
VL: B1 VL with S53T, S91H, T94Y, L96H
B22: CFP0021 21L 96W (antibody, V domains shown)
VH: B15 VH
VL: B1 VL with S53T, S91H, T94Y, L96W
B23: CFP0021 21L 50Q (antibody, V domains shown)
VH: B15 VH
VL: B1 VL with H50Q, S53T, S91H, T94Y
B24: CFP0021 21L 94W (antibody, V domains shown)
VH: B15 VH
VL: B1 VL with S53T, S91H, T94W
B25: CFP0021 21L 91S (antibody, V domains shown)
VH: B15 VH
VL: B1 VL with S53T, T94Y
B26: CFP0021 21L 93R (antibody, V domains shown)
VH: B15 VH
VL: B1 VL with S53T, S91H, S93R, T94Y
B27: CFP0021 21L 93D (antibody, V domains shown)
VH: B15 VH
VL: B1 VL with S53T, S91H, S93D, T94Y
B28: CFP0021 21L 93N (antibody, V domains shown)
VH: B15 VH
VL: B1 VL with S53T, S91H, S93N, T94Y
B29: CFP0021 21L 94F (antibody, V domains shown)
VH: B15 VH
VL: B1 VL with S53T, S91H, T94F
B30: CFP0021 21L 94S (antibody, V domains shown)
VH: B15 VH
VL: B1 VL with S53T, S91H, T94S
B31: CFP0021 21L 94T (antibody, V domains shown)
VH: B15 VH
VL: B1 VL with S53T, S91H
B32: CFP0021 21L 91R (antibody, V domains shown)
VH: B15 VH
VL: B1 VL with S53T, S91R, T94Y
B33: CFP0021 21L 94H (antibody, V domains shown)
VH: B15 VH
VL: B1 VL with S53T, S91H, T94H
B34: CFP0021 21L 50T (antibody, V domains shown)
VH: B15 VH
VL: B1 VL with H50T, S53T, S91H, T94Y
B35: CFP0021 21L 53S (antibody, V domains shown)
VH: B15 VH
VL: B1 VL with S91H, T94Y
B36: CFP0021 21L 92N (antibody, V domains shown)
VH: B15 VH
VL: B1 VL with S53T, S91H, D92N, T94Y
B37: CFP0021 21L 91Y (antibody, V domains shown)
VH: B15 VH
VL: B1 VL with S53T, S91Y, T94Y
B38: CFP0021 21L 96P (antibody, V domains shown)
VH: B15 VH
VL: B1 VL with S53T, S91H, T94Y, L96P
B39: CFP0021 21L 53H (antibody, V domains shown)
VH: B15 VH
VL: B1 VL with S53H, S91H, T94Y
B40: CFP0021 21L 96I (antibody, V domains shown)
VH: B15 VH
VL: B1 VL with S53T, S91H, T94Y, L96I
B41: CFP0021 21L 96F (antibody, V domains shown)
VH: B15 VH
VL: B1 VL with S53T, S91H, T94Y, L96F
B42: antibody comprising heavy chain of clone 18 and light chain of 20L065 (antibody, V domains shown)
VH: B1 VH with G99Q, G100L, W101Y, W102G, G103Y, G104Y, A105E, Y108I
VL: B1 VL with E30H, H50E, S53N, S91Y, D92S, T94Y, L96H
notes: also called clone 18 with common light chain

Each binder was assayed against T1, human C5 (human, UniProt P01031 19-673; P01031 678-1676, Beta and alpha chains are disulfide-linked and the protein is glycosylated.) (assay: Biacore, captured antibody, pH 7.4, 37 C;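 further: biacore binding response of anti-C5 antibody light chain variants captured on chip with human C5 injected, ACES running buffer containing 1.2 mM CaCl₂, parent light chain antibody set to 100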).
T1 construct: Either in-house recombinant C5 or plasma derived C5 (CALBIOCHEM) was used; also called recombinant human C5; plasma derived human C5

First: B1
Second: B2
The “% binding (parent = 100)” value of the first is higher: 4.3% for the first, 0.6% for the second.

Compared with B3, B4 is higher in “% binding (parent = 100)” value: 3.4% for the first, 109% for the second.

Going from B5 to B6, the “% binding (parent = 100)” value rises from 63% to 69.6%.

First: B7
Second: B8
The “% binding (parent = 100)” value of the first is higher: 100% for the first, 51% for the second.

First: B9
Second: B10
The “% binding (parent = 100)” value of the first is higher: -9.4% for the first, -11.1% for the second.

Going from B11 to B12, the “% binding (parent = 100)” value falls from 84.9% to 22.9%.

Going from B13 to B14, the “% binding (parent = 100)” value falls from 52.9% to -8.4%.

First: B15
Second: B16
The “% binding (parent = 100)” value of the first is lower: 1.4% for the first, 4.8% for the second.

First: B17
Second: B18
The “% binding (parent = 100)” value of the first is higher: 40.6% for the first, 37.9% for the second.

First: B19
Second: B20
The “% binding (parent = 100)” value of the first is lower: 74.9% for the first, 97.6% for the second.

Going from B21 to B22, the “% binding (parent = 100)” value rises from -0.7% to 0.8%.

Going from B23 to B24, the “% binding (parent = 100)” value falls from 61.1% to 1.3%.

Compared with B25, B26 is lower in “% binding (parent = 100)” value: 17.8% for the first, 5.2% for the second.

Compared with B27, B28 is higher in “% binding (parent = 100)” value: 22.2% for the first, 28.5% for the second.

Going from B29 to B30, the “% binding (parent = 100)” value falls from 0.9% to 0.3%.

First: B31
Second: B32
The “% binding (parent = 100)” value of the first is lower: 1.3% for the first, 1.5% for the second.

Going from B33 to B34, the “% binding (parent = 100)” value rises from 2.6% to 38.8%.

Going from B35 to B36, the “% binding (parent = 100)” value falls from 73.2% to 4.7%.

Going from B37 to B38, the “% binding (parent = 100)” value falls from 79.5% to 4.3%.

Going from B39 to B40, the “% binding (parent = 100)” value falls from 75.7% to 19.7%.

For B41, the “% binding (parent = 100)” value was 39.9%.

Each binder was assayed against T1, human C5 (assay: Biacore, 37 degrees C; antibody captured, human C5 injected (concentration not given); association pH 7.4, dissociation pH 7.4 (circles) or pH 5.8 (triangles)).

B42: binds.
